Assay results as given in PMC10789646, “Uncovering the non-histone interactome of the BRPF1 bromodomain using site-specific azide-acetyllysine photochemistry” (The Journal of Biological Chemistry, 2023).
Substitutions are numbered along the chain they refer to. Where no end group is shown, it is not given here.

B1: diacetylated ILF3 peptide 8 (peptide)
peptide: RVGLVAK(Ac)GLLLK(Ac)G
notes: holds the KGLLLK (100-105) motif; also called RVGLVAKacGLLLKacG 8; source: synthetic peptide (GL Biochem Ltd and S. Biochem Ltd, HPLC purified)
B2: WT BRPF1 bromodomain (domain or fragment)
chain: MEMQLTPFLILLRKTLEQLQEKDTGNIFSEPVPLSEVPDYLDHIKKPMDFFTMKQNLEAYRYLNFDDFEEDFNLIVSNCLKYNAKDTIFYRAAVRLREQGGAVLRQARRQAEKMG
notes: bromodomain of bromodomain-PHD finger protein 1 (BRPF1); vector pNIC28-Bsa4; also called bromodomain-PHD finger protein 1 bromodomain; source: E. coli One Shot BL21 star (DE3), purified (Ni-NTA, Superdex-75)
B3: BRPF1 bromodomain N651AzF (domain or fragment)
chain: B2 chain with N26F
modifications: 4-azido-L-phenylalanine (AzF) at 651
notes: bromodomain of BRPF1 with the unnatural amino acid 4-azido-L-phenylalanine in place of N651; also called BRPF1-N651AzF; engineered BRPF1 bromodomain; source: E. coli One Shot BL21 Star (DE3) with pEVOL-pAzF (amber suppression), purified (Ni-NTA, Superdex-75); not shown: 6xHis, N-terminal, kept

Tests used:
WT BRPF1 bromodomain = target: B2; experiment: ITC; peptide (1.5 to 1.8 mM, syringe) injected into protein (80 to 100 μM, cell); 15 °C; 50 mM Hepes pH 7.5, 200 mM NaCl, 5% glycerol; single-binding site model; details: both partners purified
[1] = target: histone H4K5acK8ac peptide 2 (acetyl-lysine at K5 and K8); experiment: as above; details: both partners purified

Binder	Kd (WT BRPF1 bromodomain) [µM]	Kd [1] [µM]
B1	250 ± 10.2	–
B2	–	24.6 ± 3.1
B3	–	21.6 ± 2.1
